Where a chain is given by its changes, count along the chain named.
B1: Protein-tyrosine phosphatase 1B wild type [not stated] / Munc18c (endogenous) [mouse (endogenous in 3T3-L1 and PTP1B KO adipocytes)] (parent)
chain 1: MEMEKEFEQIDKSGSWAAIYQDIRHEASDFPCRVAKLPKNKNRNRYRDVSPFDHSRIKLHQEDNDYINASLIKMEEAQRSYILTQGPLPNTCGHFWEMVWEQKSRGVVMLNRVMEKGSLKCAQYWPQKEEKEMIFEDTNLKLTLISEDIKSYYTVRQLELENLTTQETREILHFHYTTWPDFGVPESPASFLNFLFKVRESGSLSPEHGPVVVHCSAGIGRSGTFCLADTCLLLMDKRKDPSSVDIKKVLLEMRKFRMGLIQTADQLRFSYLAVIEGAKFIMGDSSVQDQWKELSHEDLEPPPEHIPPPPRPPKRILEPHNGKCREFFPNHQWVKEETQEDKDCPIKEEKGSPLNAAPYGIESMSQDTEVRSRVVGGSLRGAQAASPAKGEPSLPEKDEDHALSYWKPFLVNMCVATVLTAGAYLCYRFLFNSNT
chain 2: MAPPVSERGLKSVVWRKIKTAVFDDCRKEGEWKIMLLDEFTTKLLSSCCKMTDLLEEGITVIENIYKNREPVRQMKALYFISPTPKSVDCFLRDFGSKSEKKYKAAYIYFTDFCPDSLFNKIKASCSKSIRRCKEINISFIPQESQVYTLDVPDAFYYCYSPDPSNASRKEVVMEAMAEQIVTVCATLDENPGVRYKSKPLDNASKLAQLVEKKLEDYYKIDEKGLIKGKTQSQLLIIDRGFDPVSTVLHELTFQAMAYDLLPIENDTYKYKTDGKEKEAVLEEDDDLWVRVRHRHIAVVLEEIPKLMKEISSTKKATEGKTSLSALTQLMKKMPHFRKQISKQVVHLNLAEDCMNKFKLNIEKLCKTEQDLALGTDAEGQRVKDSMLVLLPVLLNKNHDNCDKIRAVLLYIFGINGTTEENLDRLIHNVKIEDDSDMIRNWSHLGVPIVPPSQQAKPLRKDRSAEETFQLSRWTPFIKDIMEDAIDNRLDSKEWPYCSRCPAVWNGSGAVSARQKPRTNYLELDRKNGSRLIIFVIGGITYSEMRCAYEVSQAHKSCEVIIGSTHILTPRKLLDDIKMLNKSKDKVSFKDE
B2: Munc18c (endogenous) [mouse (endogenous in 3T3-L1 and PTP1B KO adipocytes)] / Protein-tyrosine phosphatase 1B substrate-trapping [not stated] (parent)
chain 1: B1 chain 2
chain 2: B1 chain 1 with D181A

Variants of: B1
Test: co-immunoprecipitation (IP PTP1B with FG6, IB Munc18c), band quantification
Settings: with Munc18c (endogenous) [mouse (endogenous in 3T3-L1 and PTP1B KO adipocytes)]; 3T3-L1 WT adipocytes, + insulin + Vanadate; read off a plot

Row | Variant | response (relative to WT)
1 | chain 1 D181A | 0.83

Same assay, conditions: with Munc18c (endogenous) [mouse (endogenous in 3T3-L1 and PTP1B KO adipocytes)]; 3T3-L1 WT adipocytes, + insulin, NP40 lysis; read off a plot

Row | Variant | response (relative to WT)
2 | chain 1 D181A | 2.2

Same assay, conditions: with Munc18c (endogenous) [mouse (endogenous in 3T3-L1 and PTP1B KO adipocytes)]; 3T3-L1 WT adipocytes, - insulin, NP40 lysis; read off a plot

Row | Variant | response (relative to WT)
3 | chain 1 D181A | 1.4

Variants of: B2
Test: as above
Settings: with Protein-tyrosine phosphatase 1B substrate-trapping mutant D181A; Munc18c knockdown 3T3-L1 cells reconstituted with Y218/219F, transfected with PTP1B D/A, + insulin; read off a plot

Row | Variant | response (relative to WT)
4 | chain 1 MAPPVSERGLKSVVWRKIKTAVFDDCRKEGEWKIMLLDEFTTKLLSSCCKMTDLLEEGITVIENIYKNREPVRQMKALYFISPTPKSVDCFLRDFGSKSEKKYKAAYIYFTDFCPDSLFNKIKASCSKSIRRCKEINISFIPQESQVYTLDVPDAFYYCYSPDPSNASRKEVVMEAMAEQIVTVCATLDENPGVRYKSKPLDNASKLAQLVEKKLEDFFKIDEKGLIKGKTQSQLLIIDRGFDPVSTVLHELTFQAMAYDLLPIENDTYKYKTDGKEKEAVLEEDDDLWVRVRHRHIAVVLEEIPKLMKEISSTKKATEGKTSLSALTQLMKKMPHFRKQISKQVVHLNLAEDCMNKFKLNIEKLCKTEQDLALGTDAEGQRVKDSMLVLLPVLLNKNHDNCDKIRAVLLYIFGINGTTEENLDRLIHNVKIEDDSDMIRNWSHLGVPIVPPSQQAKPLRKDRSAEETFQLSRWTPFIKDIMEDAIDNRLDSKEWPYCSRCPAVWNGSGAVSARQKPRTNYLELDRKNGSRLIIFVIGGITYSEMRCAYEVSQAHKSCEVIIGSTHILTPRKLLDDIKMLNKSKDKVSFKDE [chain 1 Y218F Y219F] | 0.87

Same assay, conditions: with Protein-tyrosine phosphatase 1B substrate-trapping mutant D181A; Munc18c knockdown 3T3-L1 cells reconstituted with Y218/219F, transfected with PTP1B D/A, - insulin; read off a plot

Row | Variant | response (relative to WT)
5 | chain 1 MAPPVSERGLKSVVWRKIKTAVFDDCRKEGEWKIMLLDEFTTKLLSSCCKMTDLLEEGITVIENIYKNREPVRQMKALYFISPTPKSVDCFLRDFGSKSEKKYKAAYIYFTDFCPDSLFNKIKASCSKSIRRCKEINISFIPQESQVYTLDVPDAFYYCYSPDPSNASRKEVVMEAMAEQIVTVCATLDENPGVRYKSKPLDNASKLAQLVEKKLEDFFKIDEKGLIKGKTQSQLLIIDRGFDPVSTVLHELTFQAMAYDLLPIENDTYKYKTDGKEKEAVLEEDDDLWVRVRHRHIAVVLEEIPKLMKEISSTKKATEGKTSLSALTQLMKKMPHFRKQISKQVVHLNLAEDCMNKFKLNIEKLCKTEQDLALGTDAEGQRVKDSMLVLLPVLLNKNHDNCDKIRAVLLYIFGINGTTEENLDRLIHNVKIEDDSDMIRNWSHLGVPIVPPSQQAKPLRKDRSAEETFQLSRWTPFIKDIMEDAIDNRLDSKEWPYCSRCPAVWNGSGAVSARQKPRTNYLELDRKNGSRLIIFVIGGITYSEMRCAYEVSQAHKSCEVIIGSTHILTPRKLLDDIKMLNKSKDKVSFKDE [chain 1 Y218F Y219F] | 0.4

Same assay, conditions: with Protein-tyrosine phosphatase 1B substrate-trapping mutant D181A; Munc18c knockdown 3T3-L1 cells reconstituted with Y521F, transfected with PTP1B D/A, + insulin; read off a plot

Row | Variant | response (relative to WT)
6 | chain 1 MAPPVSERGLKSVVWRKIKTAVFDDCRKEGEWKIMLLDEFTTKLLSSCCKMTDLLEEGITVIENIYKNREPVRQMKALYFISPTPKSVDCFLRDFGSKSEKKYKAAYIYFTDFCPDSLFNKIKASCSKSIRRCKEINISFIPQESQVYTLDVPDAFYYCYSPDPSNASRKEVVMEAMAEQIVTVCATLDENPGVRYKSKPLDNASKLAQLVEKKLEDYYKIDEKGLIKGKTQSQLLIIDRGFDPVSTVLHELTFQAMAYDLLPIENDTYKYKTDGKEKEAVLEEDDDLWVRVRHRHIAVVLEEIPKLMKEISSTKKATEGKTSLSALTQLMKKMPHFRKQISKQVVHLNLAEDCMNKFKLNIEKLCKTEQDLALGTDAEGQRVKDSMLVLLPVLLNKNHDNCDKIRAVLLYIFGINGTTEENLDRLIHNVKIEDDSDMIRNWSHLGVPIVPPSQQAKPLRKDRSAEETFQLSRWTPFIKDIMEDAIDNRLDSKEWPYCSRCPAVWNGSGAVSARQKPRTNFLELDRKNGSRLIIFVIGGITYSEMRCAYEVSQAHKSCEVIIGSTHILTPRKLLDDIKMLNKSKDKVSFKDE [chain 1 Y521F] | 0.93

Same assay, conditions: with Protein-tyrosine phosphatase 1B substrate-trapping mutant D181A; Munc18c knockdown 3T3-L1 cells reconstituted with Y521F, transfected with PTP1B D/A, - insulin; read off a plot

Row | Variant | response (relative to WT)
7 | chain 1 MAPPVSERGLKSVVWRKIKTAVFDDCRKEGEWKIMLLDEFTTKLLSSCCKMTDLLEEGITVIENIYKNREPVRQMKALYFISPTPKSVDCFLRDFGSKSEKKYKAAYIYFTDFCPDSLFNKIKASCSKSIRRCKEINISFIPQESQVYTLDVPDAFYYCYSPDPSNASRKEVVMEAMAEQIVTVCATLDENPGVRYKSKPLDNASKLAQLVEKKLEDYYKIDEKGLIKGKTQSQLLIIDRGFDPVSTVLHELTFQAMAYDLLPIENDTYKYKTDGKEKEAVLEEDDDLWVRVRHRHIAVVLEEIPKLMKEISSTKKATEGKTSLSALTQLMKKMPHFRKQISKQVVHLNLAEDCMNKFKLNIEKLCKTEQDLALGTDAEGQRVKDSMLVLLPVLLNKNHDNCDKIRAVLLYIFGINGTTEENLDRLIHNVKIEDDSDMIRNWSHLGVPIVPPSQQAKPLRKDRSAEETFQLSRWTPFIKDIMEDAIDNRLDSKEWPYCSRCPAVWNGSGAVSARQKPRTNFLELDRKNGSRLIIFVIGGITYSEMRCAYEVSQAHKSCEVIIGSTHILTPRKLLDDIKMLNKSKDKVSFKDE [chain 1 Y521F] | 0.38
